The results in this text go back to paper PMC7954794 (2021).

The labels stand for the following.
B1: S. cerevisiae Abp1 (full length; SH3 domain 535-592 mutated) / Hua2 (parent complex)
chain 1: MALEPIDYTTHSREIDAEYLKIVRGSDPDTTWLIISPNAKKEYEPESTGSSFHDFLQLFDETKVQYGLARVSPPGSDVEKIIIIGWCPDSAPLKTRASFAANFAAVANNLFKGYHVQVTARDEDDLDENELLMKISNAAGARYSIQTSSKQQGKASTPPVKKSFTPSKSPAPVSKKEPVKTPSPAPAAKISSRVNDNNDDDDWNEPELKERDFDQAPLKPNQSSYKPIGKIDLQKVIAEEKAKEDPRLVQKPTAAGSKIDPSSDIANLKNESKLKRDSEFNSFLGTTKPPSMTESSLKNDDDKVIKGFRNEKSPAQLWAERKAKQNSGNAETKAEAPKPEVPEDEPEGEPDVKDLKSKFEGLAASEKEEEEMENKFAPPPKKSEPTIISPKPFSKPQEPVKAEEAEQPKTDYKKIGNPLPGMHIEADNEEEPEENDDDWDDDEDEAAQPPLPSRNVASGAPVQKEEPEQEEIAPSLPSRNSIPAPKQEEAPEQAPEEEIEEEAEEAAPQLPSRSSAAPPPPPRRATPEKKPKENPWATAEYDYDAAEDNELTFVENDKIINIEFVDDDWWLGELEKDGSKGLFPSNYVSLGN
chain 2: MQQTKFGKMYLDHDSVVEYSEDEIVEADRITLGYKKRLSMIENQMRHLLEDFSLDVQQIEPILADLQKYYDAFLQLLQKRNKSLQCKRSTHQPVPSPMNSQTSTNAKVNLSGKLMKFQLNSVQKFDEENILRILQNKIEFEHYFQIDKGKKQKVLLLAVYQCLNGPTRLHKVLNIEGIIHNNSIRTILGKQVSSSKWTVFLYDVKLVLLAHRQDVPNLETSKMIVRYGDLFPCALYFKDHTAY

The variants in this assay derive from B1. Kind of assay: DHFR protein-fragment complementation in yeast (Abp1-DHFR F[1,2] x partner-DHFR F[3]), deep mutational scanning, second methotrexate selection vs reference; S. cerevisiae, DHFR-PCA selection in liquid with methotrexate at 30 C, two 72 h selections (the score uses the second); reference = the pre-selection culture.
Turning to chain 1 Y587R, the screen value was -2.81 DMS score: mean over two replicates of log2(f_test/f_ref + 0.5)/ln 2, minus the synonymous-codon median (not a log2 ….
To chain 1 K558S belongs -0.847 DMS score: mean over two replicates of log2(f_test/f_ref + 0.5)/ln 2, minus the synonymous-codon median (not a log2 …; to chain 1 K558T, 0.186 DMS score: mean over two replicates of log2(f_test/f_ref + 0.5)/ln 2, minus the synonymous-codon median (not a log2 …; to chain 1 D568A, -1.81 DMS score: mean over two replicates of log2(f_test/f_ref + 0.5)/ln 2, minus the synonymous-codon median (not a log2 ….
The value for chain 1 D568F was -2.94 DMS score: mean over two replicates of log2(f_test/f_ref + 0.5)/ln 2, minus the synonymous-codon median (not a log2 ….
The value for chain 1 D568G was -2.49 DMS score: mean over two replicates of log2(f_test/f_ref + 0.5)/ln 2, minus the synonymous-codon median (not a log2 …; that for chain 1 A545R was -0.103 DMS score: mean over two replicates of log2(f_test/f_ref + 0.5)/ln 2, minus the synonymous-codon median (not a log2 …; that for chain 1 A545T was -0.0243 DMS score: mean over two replicates of log2(f_test/f_ref + 0.5)/ln 2, minus the synonymous-codon median (not a log2 ….
Consider chain 1 A545Q, for which the screen value is 0.22 DMS score: mean over two replicates of log2(f_test/f_ref + 0.5)/ln 2, minus the synonymous-codon median (not a log2 ….
The value for chain 1 A545C was -0.621 DMS score: mean over two replicates of log2(f_test/f_ref + 0.5)/ln 2, minus the synonymous-codon median (not a log2 ….
For the variant chain 1 S585H, the screen value was -2.79 DMS score: mean over two replicates of log2(f_test/f_ref + 0.5)/ln 2, minus the synonymous-codon median (not a log2 ….
On to chain 1 S585K, for which the screen value was -2.89 DMS score: mean over two replicates of log2(f_test/f_ref + 0.5)/ln 2, minus the synonymous-codon median (not a log2 ….
On to chain 1 S585V, for which the screen value was -0.716 DMS score: mean over two replicates of log2(f_test/f_ref + 0.5)/ln 2, minus the synonymous-codon median (not a log2 ….
Turning to chain 1 E575V, the screen value was -0.317 DMS score: mean over two replicates of log2(f_test/f_ref + 0.5)/ln 2, minus the synonymous-codon median (not a log2 ….
To chain 1 E575Q belongs 0.336 DMS score: mean over two replicates of log2(f_test/f_ref + 0.5)/ln 2, minus the synonymous-codon median (not a log2 ….
The value for chain 1 E575W was -0.949 DMS score: mean over two replicates of log2(f_test/f_ref + 0.5)/ln 2, minus the synonymous-codon median (not a log2 …; that for chain 1 E575I was -0.328 DMS score: mean over two replicates of log2(f_test/f_ref + 0.5)/ln 2, minus the synonymous-codon median (not a log2 ….
To chain 1 N549G belongs 1.33 DMS score: mean over two replicates of log2(f_test/f_ref + 0.5)/ln 2, minus the synonymous-codon median (not a log2 …; to chain 1 N549H, 0.106 DMS score: mean over two replicates of log2(f_test/f_ref + 0.5)/ln 2, minus the synonymous-codon median (not a log2 …; to chain 1 N549A, 2.13 DMS score: mean over two replicates of log2(f_test/f_ref + 0.5)/ln 2, minus the synonymous-codon median (not a log2 ….
For the variant chain 1 N549Y, the screen value was -1.27 DMS score: mean over two replicates of log2(f_test/f_ref + 0.5)/ln 2, minus the synonymous-codon median (not a log2 ….
To chain 1 N549R belongs -1.02 DMS score: mean over two replicates of log2(f_test/f_ref + 0.5)/ln 2, minus the synonymous-codon median (not a log2 ….
For the variant chain 1 I562V, the screen value is 0.21 DMS score: mean over two replicates of log2(f_test/f_ref + 0.5)/ln 2, minus the synonymous-codon median (not a log2 ….
The value for chain 1 V554L was -0.408 DMS score: mean over two replicates of log2(f_test/f_ref + 0.5)/ln 2, minus the synonymous-codon median (not a log2 ….
The value for chain 1 V554R was 0.925 DMS score: mean over two replicates of log2(f_test/f_ref + 0.5)/ln 2, minus the synonymous-codon median (not a log2 ….
The value for chain 1 V554W was -0.15 DMS score: mean over two replicates of log2(f_test/f_ref + 0.5)/ln 2, minus the synonymous-codon median (not a log2 …; that for chain 1 V554S was 0.912 DMS score: mean over two replicates of log2(f_test/f_ref + 0.5)/ln 2, minus the synonymous-codon median (not a log2 ….
Consider chain 1 V554T, for which the screen value is 0.502 DMS score: mean over two replicates of log2(f_test/f_ref + 0.5)/ln 2, minus the synonymous-codon median (not a log2 ….
The value for chain 1 V554K was 1.28 DMS score: mean over two replicates of log2(f_test/f_ref + 0.5)/ln 2, minus the synonymous-codon median (not a log2 …; that for chain 1 V554Y was 0.89 DMS score: mean over two replicates of log2(f_test/f_ref + 0.5)/ln 2, minus the synonymous-codon median (not a log2 ….
In the case of chain 1 V554I, the screen value is -0.0296 DMS score: mean over two replicates of log2(f_test/f_ref + 0.5)/ln 2, minus the synonymous-codon median (not a log2 ….
The value for chain 1 V554A was 0.779 DMS score: mean over two replicates of log2(f_test/f_ref + 0.5)/ln 2, minus the synonymous-codon median (not a log2 …; that for chain 1 V565L was -1.23 DMS score: mean over two replicates of log2(f_test/f_ref + 0.5)/ln 2, minus the synonymous-codon median (not a log2 …; that for chain 1 V565D was -0.156 DMS score: mean over two replicates of log2(f_test/f_ref + 0.5)/ln 2, minus the synonymous-codon median (not a log2 ….
To chain 1 V565S belongs -0.833 DMS score: mean over two replicates of log2(f_test/f_ref + 0.5)/ln 2, minus the synonymous-codon median (not a log2 …; to chain 1 V565W, 0.964 DMS score: mean over two replicates of log2(f_test/f_ref + 0.5)/ln 2, minus the synonymous-codon median (not a log2 ….
Take chain 1 V565Y: the screen value was -0.425 DMS score: mean over two replicates of log2(f_test/f_ref + 0.5)/ln 2, minus the synonymous-codon median (not a log2 ….
To chain 1 K580T belongs 0.165 DMS score: mean over two replicates of log2(f_test/f_ref + 0.5)/ln 2, minus the synonymous-codon median (not a log2 …; to chain 1 K580M, -0.619 DMS score: mean over two replicates of log2(f_test/f_ref + 0.5)/ln 2, minus the synonymous-codon median (not a log2 …; to chain 1 K580L, -0.907 DMS score: mean over two replicates of log2(f_test/f_ref + 0.5)/ln 2, minus the synonymous-codon median (not a log2 ….
As for chain 1 K580R, the screen value is 0.457 DMS score: mean over two replicates of log2(f_test/f_ref + 0.5)/ln 2, minus the synonymous-codon median (not a log2 ….
Consider chain 1 K580H, for which the screen value was -0.129 DMS score: mean over two replicates of log2(f_test/f_ref + 0.5)/ln 2, minus the synonymous-codon median (not a log2 ….
To chain 1 K580V belongs 0.0627 DMS score: mean over two replicates of log2(f_test/f_ref + 0.5)/ln 2, minus the synonymous-codon median (not a log2 …; to chain 1 K580A, -0.331 DMS score: mean over two replicates of log2(f_test/f_ref + 0.5)/ln 2, minus the synonymous-codon median (not a log2 …; to chain 1 G591A, 0.673 DMS score: mean over two replicates of log2(f_test/f_ref + 0.5)/ln 2, minus the synonymous-codon median (not a log2 ….
The value for chain 1 G591N was 0.941 DMS score: mean over two replicates of log2(f_test/f_ref + 0.5)/ln 2, minus the synonymous-codon median (not a log2 ….
To chain 1 G591W belongs -0.547 DMS score: mean over two replicates of log2(f_test/f_ref + 0.5)/ln 2, minus the synonymous-codon median (not a log2 ….
Turning to chain 1 G591T, the screen value is 0.63 DMS score: mean over two replicates of log2(f_test/f_ref + 0.5)/ln 2, minus the synonymous-codon median (not a log2 ….
Regarding chain 1 I559L, the screen value was -0.0963 DMS score: mean over two replicates of log2(f_test/f_ref + 0.5)/ln 2, minus the synonymous-codon median (not a log2 ….
The value for chain 1 E547D was -0.281 DMS score: mean over two replicates of log2(f_test/f_ref + 0.5)/ln 2, minus the synonymous-codon median (not a log2 …; that for chain 1 E547T was -2.64 DMS score: mean over two replicates of log2(f_test/f_ref + 0.5)/ln 2, minus the synonymous-codon median (not a log2 …; that for chain 1 E547L was -0.584 DMS score: mean over two replicates of log2(f_test/f_ref + 0.5)/ln 2, minus the synonymous-codon median (not a log2 ….
The value for chain 1 E540L was -2.53 DMS score: mean over two replicates of log2(f_test/f_ref + 0.5)/ln 2, minus the synonymous-codon median (not a log2 ….
To chain 1 E540V belongs -2.31 DMS score: mean over two replicates of log2(f_test/f_ref + 0.5)/ln 2, minus the synonymous-codon median (not a log2 …; to chain 1 E540C, -1.63 DMS score: mean over two replicates of log2(f_test/f_ref + 0.5)/ln 2, minus the synonymous-codon median (not a log2 …; to chain 1 L551M, -0.642 DMS score: mean over two replicates of log2(f_test/f_ref + 0.5)/ln 2, minus the synonymous-codon median (not a log2 ….
For the variant chain 1 T538S, the screen value is -0.596 DMS score: mean over two replicates of log2(f_test/f_ref + 0.5)/ln 2, minus the synonymous-codon median (not a log2 ….
To chain 1 T538M belongs 0.283 DMS score: mean over two replicates of log2(f_test/f_ref + 0.5)/ln 2, minus the synonymous-codon median (not a log2 …; to chain 1 T538Q, -0.259 DMS score: mean over two replicates of log2(f_test/f_ref + 0.5)/ln 2, minus the synonymous-codon median (not a log2 …; to chain 1 N561K, -0.913 DMS score: mean over two replicates of log2(f_test/f_ref + 0.5)/ln 2, minus the synonymous-codon median (not a log2 ….
To chain 1 I560L belongs -0.196 DMS score: mean over two replicates of log2(f_test/f_ref + 0.5)/ln 2, minus the synonymous-codon median (not a log2 …; to chain 1 I560S, -0.964 DMS score: mean over two replicates of log2(f_test/f_ref + 0.5)/ln 2, minus the synonymous-codon median (not a log2 …; to chain 1 I560V, 0.522 DMS score: mean over two replicates of log2(f_test/f_ref + 0.5)/ln 2, minus the synonymous-codon median (not a log2 ….
Turning to chain 1 A539C, the screen value is -0.17 DMS score: mean over two replicates of log2(f_test/f_ref + 0.5)/ln 2, minus the synonymous-codon median (not a log2 ….
For chain 1 P535R, the screen value was 0.0703 DMS score: mean over two replicates of log2(f_test/f_ref + 0.5)/ln 2, minus the synonymous-codon median (not a log2 ….
To chain 1 P535Q belongs 1.11 DMS score: mean over two replicates of log2(f_test/f_ref + 0.5)/ln 2, minus the synonymous-codon median (not a log2 …; to chain 1 P535A, 1.23 DMS score: mean over two replicates of log2(f_test/f_ref + 0.5)/ln 2, minus the synonymous-codon median (not a log2 ….
The value for chain 1 P535W was 0.493 DMS score: mean over two replicates of log2(f_test/f_ref + 0.5)/ln 2, minus the synonymous-codon median (not a log2 ….
To chain 1 P535T belongs 0.611 DMS score: mean over two replicates of log2(f_test/f_ref + 0.5)/ln 2, minus the synonymous-codon median (not a log2 …; to chain 1 P535L, 0.129 DMS score: mean over two replicates of log2(f_test/f_ref + 0.5)/ln 2, minus the synonymous-codon median (not a log2 ….
On to chain 1 P535I, for which the screen value was 1.56 DMS score: mean over two replicates of log2(f_test/f_ref + 0.5)/ln 2, minus the synonymous-codon median (not a log2 ….
The value for chain 1 P535H was -0.124 DMS score: mean over two replicates of log2(f_test/f_ref + 0.5)/ln 2, minus the synonymous-codon median (not a log2 …; that for chain 1 D544G was -0.178 DMS score: mean over two replicates of log2(f_test/f_ref + 0.5)/ln 2, minus the synonymous-codon median (not a log2 ….
As to chain 1 D544A, the screen value is 0.497 DMS score: mean over two replicates of log2(f_test/f_ref + 0.5)/ln 2, minus the synonymous-codon median (not a log2 ….
To chain 1 D544L belongs 0.763 DMS score: mean over two replicates of log2(f_test/f_ref + 0.5)/ln 2, minus the synonymous-codon median (not a log2 ….
